Biological target: T1, chimeric Nb_An05-Fc HCAb (Nb_An05 fused to the hinge and Fc-domain of human IgG1) (camelid)
T1 construct: also called synthetic HCAb; reconstituted HCAb; not shown: Fc (human IgG1, including the hinge), C-terminal, kept
Assay: ELISA; format not told; Nb_An05-Fc HCAb on the VSG antigen
Conditions: both partners purified

B1: purified soluble AnTat1.1 VSG (variant-specific surface glycoprotein of Trypanosoma brucei AnTat1.1) (natural protein)
chain: QTAGRPLADVVGKTLCTYSKTAKRQAANLAQTLQRASSAAKQSRQAQQLAALALAKLPDYKEAAATLLIYATHKIQDAQASIENWTGENTKLVGQAMYSSGRIDELMLLLEGHREDGANGQDKTCLGAAAGGNTVNEFVKTECDTESGHNIEADNSNIGQAATTLSQESTDPEASGGASCKITANLATDYDSHANELPLLGGLLTIHNAGGFKTGQSLQTAAPTNKLISALKNKGAGVAAKLATVTSAAPTSKQELKTLLASKGERAKLQAANDEYNNWKPGAKPEDFDAHIKKVFGAEDGKDSAYAIALEGISIEAPLGGGQTQNKQLYSMQPKDLMAALIGTIAELQTAAATKPACPGHKQTTTESDALCSKIKDANECNSKHFCSYNGTETDSAKKCKYNATKASASDAPVTQAQTTSRSETPAEKCTGKKKDDCKDGCKWEAETCKD
binding result: binds

From article PMC3116811 (PLoS Pathogens, 2011)
